The values below come from patent publication EP4538286A1 (Adlai Nortye Biopharma Co., Ltd., dated 2025).

The target of one assay is T1, human CD28 protein (human, UniProt P10747 19-152).
T1 construct: bought protein coated on the ELISA plate; also called human CD28 antigen
Kind of assay: ELISA, plate-coated human CD28. (In general: In an ELISA, binding on a coated surface is turned into a signal by an enzyme label.)

A further assay deals with T2, human CTLA4 protein (human, UniProt P16410 37-162, limits assumed).
T2 construct: bought protein coated on the ELISA plate; also called human CTLA4 antigen
T2 sequence (looked up): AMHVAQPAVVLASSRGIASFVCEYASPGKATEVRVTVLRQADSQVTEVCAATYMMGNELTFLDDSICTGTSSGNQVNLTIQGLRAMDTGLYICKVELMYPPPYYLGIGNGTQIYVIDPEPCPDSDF
Kind of assay: ELISA, plate-coated human CTLA4.

T1 sequence (P10747 19-152 limits assumed): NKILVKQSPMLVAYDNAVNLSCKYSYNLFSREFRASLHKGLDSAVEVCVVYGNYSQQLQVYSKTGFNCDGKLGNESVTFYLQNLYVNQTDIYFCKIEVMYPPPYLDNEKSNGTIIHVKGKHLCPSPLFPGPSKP

B1: Abs-271 (other)
heavy: VIHVTKEVKEVATLSCGHNVSVEELAQTRIYWQKEKKMVLTMMSGDHNIWPEYKNRTIFDITNNLSIVYLELRPSDEGTYECLVLKYEKDAFKREHLAEVTLSVKADGGGGSGGGGSGGGGSGGGGSGEVQLLESGGGLVQPGGSLRLSCAASGFTFSSYAMSWVRQAPGKGLEWVSGISGSGGFTYYADSVKGRFTISRDNSKNTLYLQMNSLRAEDTAVYYCAKPPRGYNYGPFDYWGQGTLVTVSSASTKGPSVFPLAPCSRSTSESTAALGCLVKDYFPEPVTVSWNSGALTSGVHTFPAVLQSSGLYSLSSVVTVPSSSLGTKTYTCNVDHKPSNTKVDKRVESKYGPPCPPCPAPEFLGGPSVFLFPPKPKDTLMISRTPEVTCVVVDVSQEDPEVQFNWYVDGVEVHNAKTKPREEQFNSTYRVVSVLAVLHQDWLNGKEYKCKVSNKGLPSSIEKTISKAKGQPREPQVYTLPPSQEEMTKNQVSLTCLVKGFYPSDIAVAWESNGQPENNYKTTPPVLDSDGSFFLYSRLTVDKSRWQEGNVFSCSVMHEALHAHYTQKSLSLSLGK
light: SYVLTQPPSVSVAPGQTARITCGGNNIGSKSVHWYQQKPGQAPVLVVYDDSDRPSGIPERFSGSNSGNTATLTISRVEAGDEADYYCQVWDSSSDHVVFGGGTKLTVLGQPKAAPSVTLFPPSSEELQANKATLVCLISDFYPGAVTVAWKADSSPVKAGVETTTPSKQSNNKYAASSYLSLTPEQWKSHRSYSCQVTHEGSTVEKTVAPTECS
notes: CD80 IgV mutant fused to the N-terminus of the sugemalimab heavy chain; also called CD80 IgV mutant M47H/I69Y/A71E/V83L-sugemalimab fusion
Take B1: the binding result with human CD28 protein and in the assay with human CTLA4 protein was “no binding” throughout.

B2: Abs-272 (other)
heavy: VIHVTKEVKEVATLSCGHNVSVEELAQTRIYWQKEKKMVLTMMSGDQNIWPEYKNRTIFDITNNLSIVYLELRPSDEGTYECLVLKYEKDAFKREHLAEVTLSVKADGGGGSGGGGSGGGGSGGGGSGEVQLLESGGGLVQPGGSLRLSCAASGFTFSSYAMSWVRQAPGKGLEWVSGISGSGGFTYYADSVKGRFTISRDNSKNTLYLQMNSLRAEDTAVYYCAKPPRGYNYGPFDYWGQGTLVTVSSASTKGPSVFPLAPCSRSTSESTAALGCLVKDYFPEPVTVSWNSGALTSGVHTFPAVLQSSGLYSLSSVVTVPSSSLGTKTYTCNVDHKPSNTKVDKRVESKYGPPCPPCPAPEFLGGPSVFLFPPKPKDTLMISRTPEVTCVVVDVSQEDPEVQFNWYVDGVEVHNAKTKPREEQFNSTYRVVSVLAVLHQDWLNGKEYKCKVSNKGLPSSIEKTISKAKGQPREPQVYTLPPSQEEMTKNQVSLTCLVKGFYPSDIAVAWESNGQPENNYKTTPPVLDSDGSFFLYSRLTVDKSRWQEGNVFSCSVMHEALHAHYTQKSLSLSLGK
light: SYVLTQPPSVSVAPGQTARITCGGNNIGSKSVHWYQQKPGQAPVLVVYDDSDRPSGIPERFSGSNSGNTATLTISRVEAGDEADYYCQVWDSSSDHVVFGGGTKLTVLGQPKAAPSVTLFPPSSEELQANKATLVCLISDFYPGAVTVAWKADSSPVKAGVETTTPSKQSNNKYAASSYLSLTPEQWKSHRSYSCQVTHEGSTVEKTVAPTECS
notes: CD80 IgV mutant fused to the N-terminus of the sugemalimab heavy chain; also called CD80 IgV mutant M47Q/I69Y/A71E/V83L-sugemalimab fusion
Regarding B2, the binding result with human CD28 protein and with human CTLA4 protein was “no binding” throughout.
